From paper PMC10657410

Molecular target: GST-ApCaV2a1 C-terminal fragment 1 with the putative RxLPxxP site removed (Aplysia californica)
Test: pull-down; GST protein on glutathione beads rotated with His-tag protein eluate overnight at 4 °C; washed 4 x 10 min with PBS; eluted by boiling; SDS-PAGE, Ponceau stain and blot with anti-His antibody

percent of binding remaining: 26%
Substance: His-SH3-3 domain of Aplysia RIM-binding protein (ApRBP) (domain or fragment)
